The values that follow come from patent publication US20200325187A1 (Genentech, published 2020).

Positions count from the first letter of the chain named.

Sequences and labels used below:
B1: 9.54-4 (designed binder)
chain: GCNIMLPFWGCKQDSDCLAGCVCQYYQSCGSE
B2: 9.54-15 (designed binder)
chain: B1 chain with S31P
B3: 9.54-6 (designed binder)
chain: B1 chain with S15F, S31Q, E32Y
B4: 9.54-12 (designed binder)
chain: B1 chain with V22I, S31Q, E32N
B5: 9.54-27 (designed binder)
chain: B1 chain with S31P, E32H
B6: 9.54-24 (designed binder)
chain: B1 chain with S31E, E32N
B7: 9.54-5 (designed binder)
chain: B1 chain with S15F, S31L
B8: 9.54-17 (designed binder)
chain: B1 chain with S31E
B9: 9.54-42 (designed binder)
chain: B1 chain with S31T, E32N
B10: 9.54-32 (designed binder)
chain: B1 chain with S15F, S31G, E32R
B11: 9.54-10 (designed binder)
chain: B1 chain with A19V, V22I, E32I
B12: 9.54-34 (designed binder)
chain: B1 chain with S15F, S31D, E32T
B13: 9.54-19 (designed binder)
chain: B1 chain with S31D, E32D
B14: 9.54-1 (designed binder)
chain: B1 chain with S31T, E32D
B15: 9.54-21 (designed binder)
chain: B1 chain with E32D
B16: 9.54-2 (designed binder)
chain: B1 chain with S31M, E32D
B17: 9.54-39 (designed binder)
chain: B1 chain with S15F, V22I, S31G
B18: 9.54-13 (designed binder)
chain: B1 chain with S15F, S31R, E32P
B19: 9.54-43 (designed binder)
chain: B1 chain with S31D, E32G
B20: 9.54-9 (designed binder)
chain: B1 chain with S15F, S31Q, E32H
B21: 9.54.90-2x63 (designed binder)
chain: GCNIMLPFWGCGRDFECLAGCVCQYYQSCGGS
B22: 9.54.90-2x2 (designed binder)
chain: B21 chain with G31I, S32A

For the experiment, the target named is T1, hVEGF-A (8-109) (human, UniProt P15692 214-315).
T1 sequence (looked up): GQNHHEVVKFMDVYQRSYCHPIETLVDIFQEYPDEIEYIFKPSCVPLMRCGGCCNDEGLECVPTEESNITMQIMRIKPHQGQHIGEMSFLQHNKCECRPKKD
Description: spot phage ELISA. On the technique in general: An ELISA detects its analyte on a solid surface through an enzyme-linked reagent.
For the molecule B1, the binding result was “binds”.
With B2 the entry was “binds”; with B3, “binds”.
Regarding B4, the binding result is recorded as “binds”.
With B5 the entry was “binds”; with B6, “binds”.
With B7 the entry was “binds”.
To B8 belongs “binds”; to B9, “binds”; to B10, “binds”.
Turning to B11, the binding result is on record as “binds”.
With B12 the entry was “binds”.
For the molecule B13, the binding result is recorded as “binds”.
To B14 belongs “binds”; to B15, “binds”; to B16, “binds”.
To B17 belongs “binds”; to B18, “binds”; to B19, “binds”.
To B20 belongs “binds”.
For B21, the binding result is given as “binds”.
Turning to B22, the binding result is reported as “binds”.
